How the values were obtained:
[1] = target: collagen I (Guinea pig dermis) (Guinea pig)
collagen I = conditions: 10:1 molar excess over collagen; cited from earlier work
Text: In both models of collagen fibril assembly, a number of MMP-3 binding sites are concealed, consistent with the observed inhibition of fibrillogenesis in the presence of MMP-3 (Fig. 4g).

Sequence of collagen I (Guinea pig dermis) (Guinea pig) (main, as listed by the source, chain 1 of 2): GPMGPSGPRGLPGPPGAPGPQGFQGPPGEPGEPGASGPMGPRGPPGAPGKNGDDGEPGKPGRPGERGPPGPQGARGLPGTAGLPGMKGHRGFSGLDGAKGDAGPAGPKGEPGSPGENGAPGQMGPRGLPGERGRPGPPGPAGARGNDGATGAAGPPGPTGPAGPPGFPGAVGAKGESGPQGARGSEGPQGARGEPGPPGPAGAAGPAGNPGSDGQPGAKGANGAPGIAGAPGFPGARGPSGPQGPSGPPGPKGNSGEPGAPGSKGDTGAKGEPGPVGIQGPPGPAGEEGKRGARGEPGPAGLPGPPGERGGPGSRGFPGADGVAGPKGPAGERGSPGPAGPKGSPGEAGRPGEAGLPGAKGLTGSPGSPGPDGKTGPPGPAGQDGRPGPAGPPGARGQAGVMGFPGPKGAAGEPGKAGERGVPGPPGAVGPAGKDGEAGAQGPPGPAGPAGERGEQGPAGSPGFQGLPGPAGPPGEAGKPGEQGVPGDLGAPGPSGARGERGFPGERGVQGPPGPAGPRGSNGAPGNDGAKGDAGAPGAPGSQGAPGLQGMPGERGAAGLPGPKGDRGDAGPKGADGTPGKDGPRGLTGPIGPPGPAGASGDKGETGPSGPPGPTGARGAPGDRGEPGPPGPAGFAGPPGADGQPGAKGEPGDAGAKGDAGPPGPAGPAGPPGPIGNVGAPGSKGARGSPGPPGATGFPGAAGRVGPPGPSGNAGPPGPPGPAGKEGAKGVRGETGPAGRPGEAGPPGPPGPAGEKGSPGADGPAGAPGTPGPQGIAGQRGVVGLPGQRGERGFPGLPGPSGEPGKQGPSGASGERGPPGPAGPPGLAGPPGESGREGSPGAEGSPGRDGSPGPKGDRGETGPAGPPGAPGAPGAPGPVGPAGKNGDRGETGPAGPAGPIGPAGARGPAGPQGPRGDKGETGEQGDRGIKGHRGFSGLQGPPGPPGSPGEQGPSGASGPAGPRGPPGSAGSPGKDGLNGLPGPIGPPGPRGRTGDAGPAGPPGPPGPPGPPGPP
Sequence of collagen I (Guinea pig dermis) (Guinea pig) (partner, as listed by the source, chain 2 of 2): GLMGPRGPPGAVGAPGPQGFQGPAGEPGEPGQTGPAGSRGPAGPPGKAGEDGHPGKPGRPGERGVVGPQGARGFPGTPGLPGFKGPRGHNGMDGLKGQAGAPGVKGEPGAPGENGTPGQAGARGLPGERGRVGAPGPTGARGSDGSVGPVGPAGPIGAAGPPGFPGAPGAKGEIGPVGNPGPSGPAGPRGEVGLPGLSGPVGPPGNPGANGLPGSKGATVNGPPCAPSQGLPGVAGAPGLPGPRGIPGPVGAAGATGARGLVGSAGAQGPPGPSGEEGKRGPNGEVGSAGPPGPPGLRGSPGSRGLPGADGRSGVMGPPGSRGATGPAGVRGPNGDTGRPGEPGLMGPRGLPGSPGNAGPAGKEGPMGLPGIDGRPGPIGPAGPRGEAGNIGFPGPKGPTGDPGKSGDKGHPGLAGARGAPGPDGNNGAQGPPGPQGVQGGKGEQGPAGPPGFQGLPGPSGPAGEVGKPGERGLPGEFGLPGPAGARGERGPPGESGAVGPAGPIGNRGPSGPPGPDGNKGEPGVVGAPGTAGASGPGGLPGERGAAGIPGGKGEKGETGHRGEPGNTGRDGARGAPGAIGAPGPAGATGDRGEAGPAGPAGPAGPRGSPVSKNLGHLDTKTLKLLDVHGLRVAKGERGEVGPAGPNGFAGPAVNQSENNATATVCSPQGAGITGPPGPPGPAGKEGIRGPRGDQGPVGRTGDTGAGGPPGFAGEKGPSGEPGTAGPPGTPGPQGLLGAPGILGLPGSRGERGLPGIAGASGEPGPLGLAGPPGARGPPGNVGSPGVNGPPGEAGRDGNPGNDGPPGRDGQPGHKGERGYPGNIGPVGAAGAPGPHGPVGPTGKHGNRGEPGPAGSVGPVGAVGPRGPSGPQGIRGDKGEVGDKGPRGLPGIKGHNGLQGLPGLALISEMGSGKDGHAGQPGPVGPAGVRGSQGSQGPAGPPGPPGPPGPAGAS

collagen I fibrillogenesis by turbidity at 500 nm, 37 °C, 1 μM fibrillogenesis-competent collagen I (with telopeptides) with increasing MMP-3(E200A); delay at a ratio of 0.5:1 to collagen I [1] [min] | Molecule | Delay of collagen fibrillogenesis relative to MMP-3(E200A) (collagen I)
50 | mature MMP-3(E200A) (from UniProt P08254 100-477) (enzyme) | –
– | SPARC: matricellular calcium binding protein, secreted protein acidic and rich in cysteine (protein, UniProt P09486 18-303, looked up) SPARC: APQQEALPDETEVVEETVAEVTEVSVGANPVQVEVGEFDDGAEETEEEVVAENPCQNHHCKHGKVCELDENNTPMCVCQDPTSCPAPIGEFEKVCSNDNKTFDSSCHFFATKCTLEGTKKGHKLHLDYIGPCKYIPPCLDSELTEFPLRMRDWLKNVLVTLYERDEDNNLLTEKQKLRVKKIHENEKRLEAGDHPVELLARDFEKNYNMYIFPVHWQFGQLDQHPIDGYLSHTELAPLRAPLIPMEHCTTRFFETCDLDNDKYIALDEWAGCFGIKQKDIDKDLVI | comparably
